{"source": "paper PMC4756856", "about": "(Nucleic Acids Research, 2016)", "biological_target": "the molecule itself", "test": "SEC-MALS"}
{"protein": "TyrRSΔE2–4′ (TyrRSΔE2–4 splice variant of human tyrosyl-tRNA synthetase without the flexible linker aa343–360) (natural protein, UniProt P54577 1-528, looked up) MGDAPSPEEKLHLITRNLQALDEEYLKVDAQFGGIDQRKIFTFAEKYLPALGYSKRVHLMNPMVPGLTGSKMSSSEEESKIDLLDRKEDVKKKLKKAFCEPGNVENNGVLSFIKHVLFPLKSEFVILRDEKWGGNKTYTAYVDLEKDFAAEVVHPGDLKNSVEVALNKLLDPIREKFNTPALKKLASAAYPEEVIPSRLDIRVGKIITVEKHPDADSLYVEKIDVGEAEPRTVVSGLVQFVPKEELQDRLVVVLCNLKPQKMRGVESQGMLLCASIEGINRQVEPLDPPAGSAPGEHVFVKGYEKGQPDEELKPKKKVFEKLQADFKISEECIAQWKQTNFMTKLGSISCKSLKGGNIS", "values": [{"measurement": "stoichiometry N", "value": 2}]}
